Experimental data taken from patent US20150232576A1 (published 2015).

Experiments:
[1] = target: T1, ERK-2 (extracellular signal-regulated kinase 2) (UniProt P28482 1-360, limits assumed, biotinylated for immobilisation on streptavidin sensors); experiment: BLI, immobilised ERK-2, single component fit
T1 construct: Bought protein; also called ERK1/2
Protocol: NOSs were expressed and purified as known in the art (22-24). Heme and flavin content were estimated spectrophotometrically, and activity assayed by following NADPH consumption at 340 nm (23, 24). eNOS NO synthase activity and cytochrome c reduction were assayed as known in the art (25, 26), the concentration of CaM was reduced to 0.6 μM because of potential competition between CaM and p38. Phosphorylated His-p38 was expressed as known in the art (26) and was purified using Talon™ resin as directed by the manufacturer. ERK-2 was purchased from PROSPEC (NJ). Biolayer interferometry (27) measurements were made on a ForteBio (Menlo Park Calif.) Octet QK biosensor using streptavidin sensors. Assays were performed in 200 μL volumes at 25° C. p38 and ERK were biotinylated as known in the art (21). Biotinylated kinases were loaded onto sensors for 600 s. After establishing baseline response, kinases were exposed to analyte eNOS or nNOS at a range of concentrations. Baseline, association, and dissociation phases were all performed in NOS buffer (10 mM phosphate, pH 7.5, 100 mM NaCl, 10% glycerol, 0.005% surfactant P-20, 10 uM CaCl₂). Association and dissociation were monitored as nm shift. Nonspecific binding of analytes to sensors without ligand was negligible and so was not subtracted.
The concentration dependence was similar to that of the binding of eNOS to p38. […]

[2] = target: T2, calmodulin (CaM) (UniProt P0DP23 2-149); experiment: SPR (Biacore X100, CAPture chip), immobilised CaM, single-cycle kinetics, sequential model
[3] = target: T2, calmodulin (CaM); experiment: optical biosensing (BLI, SPR), immobilised CaM
[4] = target: T2, calmodulin (CaM); experiment: BLI, biotinylated CaM on streptavidin sensors, eNOS analyte, global single-state model
[5] = target: T2, calmodulin (CaM); experiment: BLI, immobilised CaM, single-state model

T1 sequence (P28482 whole entry): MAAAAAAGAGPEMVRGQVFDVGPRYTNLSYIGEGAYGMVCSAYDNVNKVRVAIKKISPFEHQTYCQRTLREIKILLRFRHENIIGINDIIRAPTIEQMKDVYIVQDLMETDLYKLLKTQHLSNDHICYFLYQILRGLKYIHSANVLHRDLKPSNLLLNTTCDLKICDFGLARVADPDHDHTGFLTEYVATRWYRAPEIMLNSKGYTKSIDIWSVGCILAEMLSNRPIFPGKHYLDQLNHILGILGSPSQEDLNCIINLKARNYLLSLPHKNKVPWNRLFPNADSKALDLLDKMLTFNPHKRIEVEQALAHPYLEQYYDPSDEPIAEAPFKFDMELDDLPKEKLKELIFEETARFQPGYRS

fold of apparent Kd against that measured for p38 [1] [fold] | Kd [2] [nM] | Kd [3] [nM] | Kd [4] [nM] | koff [4] [s⁻¹] | kon [4] [M⁻¹ s⁻¹] | fold higher koff than unphosphorylated eNOS [5] [fold] | Binder
~2 | 0.72 | ~1 | 0.92 | 0.00011 | 120000 | – | endothelial nitric oxide synthase (eNOS), purified, unphosphorylated (enzyme, bovine, UniProt P29473 1-1205, looked up, Expressed and purified 'as known in the art (22-24)'; also called unphosphorylated eNOS; purified eNOS) MGNLKSVGQEPGPPCGLGLGLGLGLCGKQGPASPAPEPSRAPAPATPHAPDHSPAPNSPTLTRPPEGPKFPRVKNWELGSITYDTLCAQSQQDGPCTPRCCLGSLVLPRKLQTRPSPGPPPAEQLLSQARDFINQYYSSIKRSGSQAHEERLQEVEAEVASTGTYHLRESELVFGAKQAWRNAPRCVGRIQWGKLQVFDARDCSSAQEMFTYICNHIKYATNRGNLRSAITVFPQRAPGRGDFRIWNSQLVRYAGYRQQDGSVRGDPANVEITELCIQHGWTPGNGRFDVLPLLLQAPDEAPELFVLPPELVLEVPLEHPTLEWFAALGLRWYALPAVSNMLLEIGGLEFSAAPFSGWYMSTEIGTRNLCDPHRYNILEDVAVCMDLDTRTTSSLWKDKAAVEINLAVLHSFQLAKVTIVDHHAATVSFMKHLDNEQKARGGCPADWAWIVPPISGSLTPVFHQEMVNYILSPAFRYQPDPWKGSATKGAGITRKKTFKEVANAVKISASLMGTLMAKRVKATILYASETGRAQSYAQQLGRLFRKAFDPRVLCMDEYDVVSLEHEALVLVVTSTFGNGDPPENGESFAAALMEMSGPYNSSPRPEQHKSYKIRFNSVSCSDPLVSSWRRKRKESSNTDSAGALGTLRFCVFGLGSRAYPHFCAFARAVDTRLEELGGERLLQLGQGDELCGQEEAFRGWAKAAFQASCETFCVGEEAKAAAQDIFSPKRSWKRQRYRLSTQAEGLQLLPGLIHVHRRKMFQATVLSVENLQSSKSTRATILVRLDTAGQEGLQYQPGDHIGICPPNRPGLVEALLSRVEDPPPPTESVAVEQLEKGSPGGPPPSWVRDPRLPPCTLRQALTFFLDITSPPSPRLLRLLSTLAEEPSEQQELETLSQDPRRYEEWKWFRCPTLLEVLEQFPSVALPAPLLLTQLPLLQPRYYSVSSAPNAHPGEVHLTVAVLAYRTQDGLGPLHYGVCSTWLSQLKTGDPVPCFIRGAPSFRLPPDPYVPCILVGPGTGIAPFRGFWQERLHDIESKGLQPAPMTLVFGCRCSQLDHLYRDEVQDAQERGVFGRVLTAFSREPDSPKTYVQDILRTELAAEVHRVLCLERGHMFVCGDVTMATSVLQTVQRILATEGDMELDEAGDVIGVLRDQQRYHEDIFGLTLRTQEVTSRIRTQSFSLQERHLRGAVPWAFDPPGPDTPGP
– | 0.65 | ~1 | 2.7 | 0.00012 | 120000 | 3 | ERK phosphorylated eNOS (enzyme, phosphorylated in vitro by ERK2 at S602, T46 and S58 (bovine eNOS numbering); apparent stoichiometry 2-3 phosphates per monomer) MGNLKSVGQEPGPPCGLGLGLGLGLCGKQGPASPAPEPSRAPAPATPHAPDHSPAPNSPTLTRPPEGPKFPRVKNWELGSITYDTLCAQSQQDGPCTPRCCLGSLVLPRKLQTRPSPGPPPAEQLLSQARDFINQYYSSIKRSGSQAHEERLQEVEAEVASTGTYHLRESELVFGAKQAWRNAPRCVGRIQWGKLQVFDARDCSSAQEMFTYICNHIKYATNRGNLRSAITVFPQRAPGRGDFRIWNSQLVRYAGYRQQDGSVRGDPANVEITELCIQHGWTPGNGRFDVLPLLLQAPDEAPELFVLPPELVLEVPLEHPTLEWFAALGLRWYALPAVSNMLLEIGGLEFSAAPFSGWYMSTEIGTRNLCDPHRYNILEDVAVCMDLDTRTTSSLWKDKAAVEINLAVLHSFQLAKVTIVDHHAATVSFMKHLDNEQKARGGCPADWAWIVPPISGSLTPVFHQEMVNYILSPAFRYQPDPWKGSATKGAGITRKKTFKEVANAVKISASLMGTLMAKRVKATILYASETGRAQSYAQQLGRLFRKAFDPRVLCMDEYDVVSLEHEALVLVVTSTFGNGDPPENGESFAAALMEMSGPYNSSPRPEQHKSYKIRFNSVSCSDPLVSSWRRKRKESSNTDSAGALGTLRFCVFGLGSRAYPHFCAFARAVDTRLEELGGERLLQLGQGDELCGQEEAFRGWAKAAFQASCETFCVGEEAKAAAQDIFSPKRSWKRQRYRLSTQAEGLQLLPGLIHVHRRKMFQATVLSVENLQSSKSTRATILVRLDTAGQEGLQYQPGDHIGICPPNRPGLVEALLSRVEDPPPPTESVAVEQLEKGSPGGPPPSWVRDPRLPPCTLRQALTFFLDITSPPSPRLLRLLSTLAEEPSEQQELETLSQDPRRYEEWKWFRCPTLLEVLEQFPSVALPAPLLLTQLPLLQPRYYSVSSAPNAHPGEVHLTVAVLAYRTQDGLGPLHYGVCSTWLSQLKTGDPVPCFIRGAPSFRLPPDPYVPCILVGPGTGIAPFRGFWQERLHDIESKGLQPAPMTLVFGCRCSQLDHLYRDEVQDAQERGVFGRVLTAFSREPDSPKTYVQDILRTELAAEVHRVLCLERGHMFVCGDVTMATSVLQTVQRILATEGDMELDEAGDVIGVLRDQQRYHEDIFGLTLRTQEVTSRIRTQSFSLQERHLRGAVPWAFDPPGPDTPGP
